B1: PRT-291 (protein)
chain: MVTSVWTKGVTPPADFTQGEDVFHAPYVANQGWYDITKTFNGKDDLLCGAATAGNMLHWWFDQNKEYIEAYLKKHPEKQKIMFGDQELLDVRKAINTKGSQKNSELFNYFRDKAFPNLSARRLGVMPDLVLDMFINGYYLNVTKTQTTDVNRTYQEKDKRGGIFDAVFTRGDQSKLLTSRHDFKEKGLKEISDLIKQELTEGKALGLSHTYANVRLNHVINLWGADFDSDGNLKAIYVTDSDSNASIGMKKYFVGVNSSGKVAISAKEIKEDNIGAQVLGLFTLSTGQDIWNQTN
B2: PRT-299 (protein)
chain: B1 chain with A14T, T17I, Q18K, V28K, N30G, L216I, N217G
B3: PRT-307 (protein)
chain: MQITSVWTKGVTPLTPEQFRKNNEDVIHAPYLAHQGWYDITKAFDGKDNLLCGAATAGNMLHWWFDQNKTEIEAYLSKHPEKQKIIFNNQELFDLKAAIDTKDSQTNSQLFNYFRDKAFPNLSARQLGVMPDLVLDMFINGYYLNVGKTQSTDVNRPYQDKDKRGGIFDAVFTRGDQTTLLTARHDLKNKGLNDISTIIKQELTEGRALALSHTYANVSISHVINLWGADFNAEGNLEAIYVTDSDANASIGMKKYFVGRNAHGHVAISAKKIEGENIGAQVLGLFTLSSGKDIWQKLS
B4: PRT-315 (protein)
chain: B3 chain with K21E, N112D, G147F, N236E, A249P
B5: PRT-251 (protein)
chain: MVTSVWTKGVTPPTNFTYGEDVLHAPYVANQGWYDITKTFNGKDDLLCGAATAGNMLHWWFDQNKEQIENYLKKHPEKQKINFNGEQMFDVKEAIDTKDSQLDSKLFEYFLEKAFPNLSTKHLGVFPDHVIDMFINGYRLSLLNHGPTPVKRGSKDPRGGIFDAVFTRGDQSKLLTNRHDFKEKTLKEISDLIKQELTEGKALGISHTYANVRINHVINLWGADFDAEGNLEAIAVTDSDSNASIGMKKYFVGVNSSGKVAISAKEIEEDNIGAQVLGLFTLSTGQDIWNQTN
B6: PRT-259 (protein)
chain: B5 chain with D45N, M88L, L111K, P157K, D170V, A235Y, S241T
B7: PRT-267 (protein)
chain: B5 chain with N15D, T17I, V28K, N30G, E108D, L111K, F181L, E183N, A235Y, A243P
B8: PRT-283 (protein)
chain: MVTSVWTKGVTPPAKFTQGEDVFHAPYDANQGWYDITKTFNGKDDLLCGAATAGNMLHWWFDQNKEKIEAYLKKHPDKQKIMFGDQELLDVRKVINTKGDQTNSELFNYFRDKAFPNLSARRIGVMPDLVLDMFINGYYLNVYKTQTTDVNRTYQEKDRRGGIFDAVFTRGDQSKLLTSRHDFKEKNLKEISDLIKKELTEGKALGLSHTYANVRISHVINLWGADFDSNGNLKAIYVTDSDSNASIGMKKYFVGVNSAGKVAISAKEIKEDNIGAQVLGLFTLSTGQDSWNQTN
B9: PRT-275 (protein)
chain: MVTSVWTKGVTPPTDFIYGEDVLHAPYKAGQGWYDITKLFNGKDNLLCGAATAGNMLHWWFDQNKEQIENYLKKHPEKQKIIFNNQELFDLKAAIDTKDSQLDSKLFDYFKEKAFPNLSTKHLGVFPDHVIDMFINGYRLSLLNHGPTPVKRGSKDKRGGIFDAVFTRGVQSKLLTNRHDLKNKTLKEISDLIKQELTEGKALGISHTYANGRINHVINLWGADFDAEGNLEAIYVTDSDTNPSIGMKKYFVGVNSSGKVAISAKEIEEDNIGAQVLGLFTLSTGQDIWNQTN
B10: PRT-243 (protein)
chain: MVTSVWTKGVTPPANFTQGEDVFHAPYVANQGWYDITKLFNGKDDLLCGAATAGNMLHWWFDQNKDQIKRYLEEHPEKQKINFNGEQMFDVKEAIDTKNHQLDSKLFDYFKEKAFPNLSTKHLGVFPDHVIDMFINGYRLSLLNHGPTPVKEGSKDPRGGIFDAVFTRGDQSKLLTSRHDFKEKNLKEISDLIKKELTEGKALGLSHTYANGRINHVINLWGADFDSNGNLKAIYVTDSDSNPSIGMKKYFVGVNSSGKVAISAKEIKEDNIGAQVLGLFTLSTGQDSWNQTN
B11: PRT-323 (protein)
chain: MTITSVWTKGVTPPTPEDFRENNEDVLHAPYVANQGWYDITKTFDGKDNLLCGAATAGNMLHWWFDQNKEEIERYLKKHPEKQKIIFNNQEWFDVKAAIDTKDSQTNSKLFNYFRDKAFPNLSARQLGVMPDLVLDMFINGYYLNLPKTQSTDVNRPYQDKDKRGGIFDAVFTRGDQTTLLTARHDLKNKGLNEISDLIKQELTEGKALALSHTYANVRINHVINLWGADFDAEGNLIAIYVTDSDANASIGMKKYAVGVNANGKVAISAKKIEGDNIGAQVLGLFTLSTGQDIWQKLS
B12: PRT-331 (protein)
chain: B11 chain with W92L, N112D, N121G, M130F, P147G, D176V, A257F, V260R, I294Q
B13: IdeZ (protein)
chain: DDYQRNATEAYAKEVPHQITSVWTKGVTPLTPEQFRYNNEDVIHAPYLAHQGWYDITKAFDGKDNLLCGAATAGNMLHWWFDQNKTEIEAYLSKHPEKQKIIFNNQELFDLKAAIDTKDSQTNSQLFNYFRDKAFPNLSARQLGVMPDLVLDMFINGYYLNVFKTQSTDVNRPYQDKDKRGGIFDAVFTRGDQTTLLTARHDLKNKGLNDISTIIKQELTEGRALALSHTYANVSISHVINLWGADFNAEGNLEAIYVTDSDANASIGMKKYFVGINAHGHVAISAKKIEGENIGAQVLGLFTLSSGKDIWQKLS
B14: IdeZ2 (protein)
chain: EVVEVWPYGQNPNGKTEILSQTEDSESLQRLRDIEDFQAEKKMQNVVYTKWLDGVDVKDHDFRKIVDGNIAYYATPLLNGRGFYDINKDFNRDSDKCAAAVAANMFHYWLDINRDNVDRFLRQNPEKHGIIELPDGQLKLSDFLNTYESDHGYRDKSKLFDFISNNFNGPVWTDKLLDNYINGYAYNYKYGRTIEDPTKNTSKINFFKEVFNEKILTNNHSIRNQNEFSVLLSEALYTGKAIGLSYGPAGLRHSLGHIISVWGADLDADGNVVAIYVTDSDDKKLTIGDERVGLKRYKISTDDENRLRLTAYEETHNTGGQIRGLWTLDTGKYAWADYFDKTEQTGTDQAEQ
B15: IdeS (protein)
chain: ANQEIRYSEVTPYHVTSVWTKGVTPPANFTQGEDVFHAPYVANQGWYDITKTFNGKDDLLCGAATAGNMLHWWFDQNKDQIKRYLEEHPEKQKINFNGEQMFDVKEAIDTKNHQLDSKLFEYFKEKAFPYLSTKHLGVFPDHVIDMFINGYRLSLTNHGPTPVKEGSKDPRGGIFDAVFTRGDQSKLLTSRHDFKEKNLKEISDLIKKELTEGKALGLSHTYANVRINHVINLWGADFDSNGNLKAIYVTDSDSNASIGMKKYFVGVNSAGKVAISAKEIKEDNIGAQVLGLFTLSTGQDSWNQTN
B16: PRT-241 (protein)
chain: B10 chain with L39T, D108E, G212V, P243A

Substitutions are numbered along the chain they refer to.

In one series the target is pooled human IgG (human IgG1,2,3 and 4).
On to B1, for which the Enzyme Activity Endpoint Assay: Fab′2 worked out at 1020 ng/µL, the Enzyme Activity Endpoint Assay: Fc turned out to be 420 ng/µL, the Enzyme Activity Endpoint Assay: IgG is 0 ng/µL and the Enzyme Activity Endpoint Assay: scIgG worked out at 0 ng/µL.
Protein B2 displayed an Enzyme Activity Endpoint Assay: Fab′2 of 549 ng/µL, an Enzyme Activity Endpoint Assay: Fc of 378 ng/µL, an Enzyme Activity Endpoint Assay: IgG of 368 ng/µL and an Enzyme Activity Endpoint Assay: scIgG of 0 ng/µL.
The corresponding values for B3 are 215 ng/µL, 290 ng/µL, 138 ng/µL and 614 ng/µL.
B4 had an Enzyme Activity Endpoint Assay: Fab′2 of 981 ng/µL, an Enzyme Activity Endpoint Assay: Fc of 408 ng/µL, an Enzyme Activity Endpoint Assay: IgG of 0 ng/µL and an Enzyme Activity Endpoint Assay: scIgG of 0 ng/µL.
The protein B5 gave an Enzyme Activity Endpoint Assay: Fab′2 of 1070 ng/µL, an Enzyme Activity Endpoint Assay: Fc of 444 ng/µL, an Enzyme Activity Endpoint Assay: IgG of 0 ng/µL and an Enzyme Activity Endpoint Assay: scIgG of 0 ng/µL.
Protein B6 had an Enzyme Activity Endpoint Assay: Fab′2 of 1100 ng/µL, an Enzyme Activity Endpoint Assay: Fc of 453 ng/µL, an Enzyme Activity Endpoint Assay: IgG of 0 ng/µL and an Enzyme Activity Endpoint Assay: scIgG of 0 ng/µL.
B7: the Enzyme Activity Endpoint Assay: Fab′2 turned out to be 1090 ng/µL, the Enzyme Activity Endpoint Assay: Fc was 438 ng/µL, the Enzyme Activity Endpoint Assay: IgG came to 0 ng/µL and the Enzyme Activity Endpoint Assay: scIgG was found to be 0 ng/µL.
The protein B8 registered an Enzyme Activity Endpoint Assay: Fab′2 of 380 ng/µL, an Enzyme Activity Endpoint Assay: Fc of 271 ng/µL, an Enzyme Activity Endpoint Assay: IgG of 186 ng/µL and an Enzyme Activity Endpoint Assay: scIgG of 91 ng/µL.
Take B9: the Enzyme Activity Endpoint Assay: Fab′2 is 169 ng/µL, the Enzyme Activity Endpoint Assay: Fc is 257 ng/µL, the Enzyme Activity Endpoint Assay: IgG is 97 ng/µL and the Enzyme Activity Endpoint Assay: scIgG turned out to be 589 ng/µL.
The corresponding values for B10 are 967 ng/µL, 430 ng/µL, 25 ng/µL and 0 ng/µL.
On to B11, for which the Enzyme Activity Endpoint Assay: Fab′2 came to 130 ng/µL, the Enzyme Activity Endpoint Assay: Fc was 256 ng/µL, the Enzyme Activity Endpoint Assay: IgG was 235 ng/µL and the Enzyme Activity Endpoint Assay: scIgG worked out at 743 ng/µL.
Turning to B12, the Enzyme Activity Endpoint Assay: Fab′2 is 954 ng/µL, the Enzyme Activity Endpoint Assay: Fc worked out at 398 ng/µL, the Enzyme Activity Endpoint Assay: IgG amounted to 0 ng/µL and the Enzyme Activity Endpoint Assay: scIgG is 0 ng/µL.

The target in the next series is pooled human IgG.
Take B13: the Enzyme Activity Endpoint Assay (purified): Fab'2 is 1290 ng/µL, the Enzyme Activity Endpoint Assay (purified): Fc was found to be 481 ng/µL, the Enzyme Activity Endpoint Assay (purified): IgG was 0 ng/µL and the Enzyme Activity Endpoint Assay (purified): scIgG was 0 ng/µL.
As to B14, the Enzyme Activity Endpoint Assay (purified): Fab'2 was 1340 ng/µL, the Enzyme Activity Endpoint Assay (purified): Fc came out at 566 ng/µL, the Enzyme Activity Endpoint Assay (purified): IgG was 0 ng/µL and the Enzyme Activity Endpoint Assay (purified): scIgG turned out to be 0 ng/µL.
For B15, the Enzyme Activity Endpoint Assay (purified): Fab'2 is 1360 ng/µL, the Enzyme Activity Endpoint Assay (purified): Fc was 524 ng/µL, the Enzyme Activity Endpoint Assay (purified): IgG is 0 ng/µL and the Enzyme Activity Endpoint Assay (purified): scIgG was found to be 0 ng/µL.
With B16, the Enzyme Activity Endpoint Assay (purified): Fab'2 was determined as 731 ng/µL, the Enzyme Activity Endpoint Assay (purified): Fc was found to be 406 ng/µL, the Enzyme Activity Endpoint Assay (purified): IgG came out at 0 ng/µL and the Enzyme Activity Endpoint Assay (purified): scIgG amounted to 0 ng/µL.

For the origin of these results see US20250027068.
